Measurements: paper PMC9715718 (Nature Communications, 2022)

Experiments:
[1] = target: the molecule itself; test: SEC-MALS; Superdex 200 Increase column in SEC buffer, 40-150 µg of protein applied
PqsE-E187R = target: T1, PqsE-E187R (Pseudomonas aeruginosa, UniProt P20581, E187R); test: MST; PqsE diluted 1:1 from 10 µM, RhlR-ATTO488 at 20 nM; 50 mM Tris pH 8.0, 300 mM NaCl, 5% glycerol, 50 µM mBTL, 0.05% Tween; 25 °C; details: both partners purified
T1 construct: source: E. coli BL21 CodonPlus (DE3), purified; not shown: His6, N-terminal, cleaved

B1: RhlR purified in the presence of mBTL (natural protein)
chain: MRNDGGFLLWWDGLRSEMQPIHDSQGVFAVLEKEVRRLGFDYYAYGVRHTIPFTRPKTEVHGTYPKAWLERYQMQNYGAVDPAILNGLRSSEMVVWSDSLFDQSRMLWNEARDWGLCVGATLPIRAPNNLLSVLSVARDQQNISSFEREEIRLRLRCMIELLTQKLTDLEHPMLMSNPVCLSHREREILQWTADGKSSGEIAIILSISESTVNFHHKNIQKKFDAPNKTLAAAYAAALGLI
notes: RhlR, LuxR-type transcription factor of P. aeruginosa PA14/PAO1, 241 residues; also called RhlR:mBTL; non-tagged RhlR; source: E. coli BL21 CodonPlus (DE3), purified in the presence of mBTL
**Q.** B1 was tested. Which “stoichiometry N” value [1] did it give?
**A.** The value was 2.

B2: RhlR-ATTO488 (natural protein)
chain: MRNDGGFLLWWDGLRSEMQPIHDSQGVFAVLEKEVRRLGFDYYAYGVRHTIPFTRPKTEVHGTYPKAWLERYQMQNYGAVDPAILNGLRSSEMVVWSDSLFDQSRMLWNEARDWGLCVGATLPIRAPNNLLSVLSVARDQQNISSFEREEIRLRLRCMIELLTQKLTDLEHPMLMSNPVCLSHREREILQWTADGKSSGEIAIILSISESTVNFHHKNIQKKFDAPNKTLAAAYAAALGLI
modifications: conjugated with ATTO488-maleimid (site not stated)
notes: RhlR, LuxR-type transcription factor of P. aeruginosa PA14/PAO1, 241 residues; m4 after labelling; 'non-tagged'; holds mBTL
**Q.** Which Kd (PqsE-E187R) does the source give for B2 here?
**A.** Its Kd is 13.8 ± 3.9 µM.

B3: PqsE (purified, affinity tag removed) (enzyme)
chain: MLRLSAPGQLDDDLCLLGDVQVPVFLLRLGEASWALVEGGISRDAELVWADLCRWVADPSQVHYWLITHKHYDHCGLLPYLCPRLPNVQVLASERTCQAWKSESAVRVVERLNRQLLRAEQRLPEACAWDALPVRAVADGEWLELGPRHRLQVIEAHGHSDDHVVFYDVRRRRLFCGDALGEFDEAEGVWRPLVFDDMEAYLESLERLQRLPTLLQLIPGHGGLLRGRLAADGAESAYTECLRLCRRLLWRQSMGESLDELSEELHRAWGGQSVDFLPGELHLGSMRRMLEILSRQALPLD
notes: not shown: His6, N-terminal, cleaved
**Q.** How did the “stoichiometry N” value [1] turn out when B3 was run?
**A.** Its value is 2.
